Target: the molecule itself
Assay: crystal structure; metal-free BbZIP crystallised in lipidic cubic phase (monoolein), 100 mM NaOAc-HOAc pH 4.5, LiSO4, PEG400, 20°C; two molecules in the asymmetric unit; parallel dimers seen in the crystal packing

B1: ZIP from Bordetella bronchiseptica (BbZIP), wild type (natural protein, UniProt A0A0H3LM39 1-309, looked up)
chain: MNQPSSLAADLRGAWHAQAQSHPLITLGLAASAAGVVLLLVAGIVNALTGENRVHVGYAVLGGAAGFAATALGALMALGLRAISARTQDAMLGFAAGMMLAASAFSLILPGLDAAGTIVGPGPAAAAVVALGLGLGVLLMLGLDYFTPHEHERTGHQGPEAARVNRVWLFVLTIILHNLPEGMAIGVSFATGDLRIGLPLTSAIAIQDVPEGLAVALALRAVGLPIGRAVLVAVASGLMEPLGALVGVGISSGFALAYPISMGLAAGAMIFVVSHEVIPETHRNGHETTATVGLMAGFALMMFLDTALG
notes: density seen for residues 21-145, 165-279, 285-309 (chain A) and 18-77, 84-145, 166-219, 225-307 (chain B) of the metal-free structure; also called Zrt/Irt-like protein; WT; source: E. coli C43(DE3), purified (DDM solubilisation, HisTrap IMAC, SEC)
B1: binds.

Reference: publication PMC9278863, “The two-domain elevator-type mechanism of zinc-transporting ZIP proteins” (Science Advances, 2022)
